Data on 1 molecule can be found in PMC5587775 (Nucleic Acids Research, 2017).

The experiment addresses T1, recombinant MyoD protein (UniProt P10085 1-318).
T1 sequence (looked up): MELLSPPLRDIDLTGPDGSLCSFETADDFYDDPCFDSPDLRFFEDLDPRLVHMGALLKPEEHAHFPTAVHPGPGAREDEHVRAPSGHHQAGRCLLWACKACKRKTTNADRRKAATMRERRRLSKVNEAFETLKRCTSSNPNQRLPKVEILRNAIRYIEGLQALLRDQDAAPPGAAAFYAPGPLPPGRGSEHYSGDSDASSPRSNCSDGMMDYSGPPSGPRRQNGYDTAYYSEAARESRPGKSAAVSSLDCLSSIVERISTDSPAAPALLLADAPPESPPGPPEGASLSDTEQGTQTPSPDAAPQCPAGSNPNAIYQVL
Nature of the experiment: pull-down.

B1: FoxO3 (natural protein, mouse (endogenous in C2C12), UniProt Q9WVH4 1-672, looked up)
chain: MAEAPASPVPLSPLEVELDPEFEPQSRPRSCTWPLQRPELQASPAKPSGETAADSMIPEEDDDEDDEDGGGRASSAMVIGGGVSSTLGSGLLLEDSAMLLAPGGQDLGSGPASAAGALSGGTPTQLQPQQPLPQPQPGAAGGSGQPRKCSSRRNAWGNLSYADLITRAIESSPDKRLTLSQIYEWMVRCVPYFKDKGDSNSSAGWKNSIRHNLSLHSRFMRVQNEGTGKSSWWIINPDGGKSGKAPRRRAVSMDNSNKYTKSRGRAAKKKAALQAAPESADDSPSQLSKWPGSPTSRSSDELDAWTDFRSRTNSNASTVSGRLSPILASTELDDVQDDDGPLSPMLYSSSASLSPSVSKPCTVELPRLTDMAGTMNLNDGLAENLMDDLLDNIALPPSQPSPPGGLMQRGSSFPYTAKSSGLGSPTGSFNSTVFGPSSLNSLRQSPMQTIQENRPATFSSVSHYGNQTLQDLLASDSLSHSDVMMTQSDPLMSQASTAVSAQNARRNVMLRNDPMMSFAAQPTQGSLVNQNLLHHQHQTQGALGGSRALSNSVSNMGLSDSSSLGSAKHQQQSPASQSMQTLSDSLSGSSLYSASANLPVMGHDKFPSDLDLDMFNGSLECDMESIIRSELMDADGLDFNFDSLISTQNVVGLNVGNFTGAKQASSQSWVPG
Turning to B1, the “fold retrieval with E-box motif DNA against without” value amounted to 1.6 fold.
